According to patent US20220143148A1, “COMPOSITIONS AND METHODS FOR MODULATING CGRP SIGNALING TO REGULATE INTESTINAL INNATE LYMPHOID CELLS” (The Broad Institute, Inc., priority 2019, published 2022):

System: small intestinal immune cells
Experiment: Droplet-based scRNA-seq of small intestinal immune cells (LP and PP), OVA vs PBS, clustering and differential expression
Type: in vivo, mouse
From the text: To comprehensively characterize small intestinal immune cells, Applicants generated scRNA-Seq profiles for 58,067 immune cells collected from lamina propria (LP) and Peyer's patch (PP) regions at steady state and after induction of a type 2 inflammatory reaction to ovalbumin (OVA) (Brandt et al., 2003) (FIGS. 1A and 8A). To ensure sufficient representation of rare cells, Applicants combined a normalization strategy—removing by flow sorting either a portion of IgD+ naïve B cells, which are the most abundant cell type in PPs, or all CD19+ and CD3+ T cells (FIG. 8B, Methods)—with profiling of a sufficiently large number of cells number (P>0.99 to recover at least 15 cells from each cluster, Methods) by massively parallel scRNA-seq (Haber et al., 2017) (Methods). Applicants obtained 36,797 and 21,270 high quality cells passing initial filtering (Methods) from PP and LP regions, respectively.
Overall, Applicants annotated 27 cell subsets across the two compartments, spanning T cells, B cells, ILCs, dendritic cells (DCs), myeloid cells and stromal cells, in frequencies ranging from 0.07% to 14%. Briefly, Applicants first partitioned the cells from the PP regions by unsupervised clustering (Methods) into 46 clusters, retained the 97% of cells that were robustly assigned cell identities in each cluster (Methods), assigned the cells from the LP regions to the 46 clusters using a classifier (Methods), and visualized the data with scvis (Ding et al., 2018), a deep generative model-based method (FIGS. 1B and 8C, Methods). Next, Applicants identified genes that were differentially expressed between the cells in each cluster and the remaining cells (Table 1, Methods), as well as between pairs of clusters (Table 2), to elucidate identities of similar cell types/states. Applicants excluded from downstream analysis clusters mostly consisting of contaminants from epithelium, likely doublets, or cells with a small number of Unique Molecular Identifiers (UMIs) (FIGS. 1C and 8D), or lacking distinct markers (Methods). Altogether, Applicants retained 27 clusters spanning 85% of the cells and each associated with distinct marker genes (FIG. 8E, Methods).
To induce allergic reaction to OVA, 6 to 7 weeks old mice were sensitized twice, two weeks apart, with 50 μg of OVA plus 1 mg of aluminum potassium sulfate adjuvant via intraperitoneal injection. Two weeks later, mice were orally administered with 50 mg of OVA on every other day for a total of five times. 1 μg of α-CGRP peptide was administered simultaneously when indicated. Mice were deprived of food for 3-4 hours in cages with wood chip bedding for limiting antigen degradation in the stomach before each intragastric challenge.
Isolation of cells from Peyer's patches (PPs). Peyer's patches (PPs) were carefully dissected from the small intestine under a stereo microscope using a fine scissor, pierced once with a fine forcep. Tissues were digested in freshly made digestion buffer (RPMI-1640 containing 100 μg/ml Liberase™ and 50 μg/ml DNase I at 37° C. on a roto-mixer. After 15 min, tissues were very gently mixed using a 1 ml pipette. The supernatant was collected and added to ice-cold MACS buffer (pH 7.4; PBS plus 2% FCS and 2 mM EDTA). Pre-warmed (37° C.) fresh digestion buffer was added to the remaining tissues. After rotation at 37° C. for 15 min, the mixture was vigorously mixed using a 1 ml pipette for 1 min. Supernatants from the two steps were combined and passed through 70 μm filters and stained for FACS (below).
Isolation of cells from the lamina propria (LP). The small intestines were opened longitudinally and washed in ice-cold PBS. For scRNA-seq, roughly 0.5 cm of fragments from each of the distal, middle and proximal regions without visible PPs were collected. Epithelial cells were dissociated by tissue rotation in pre-warmed (37° C.) PBS containing 10 mM EDTA at 37° C. for 15 min, followed by additional incubation on ice for 15 min. Tissues were then shaken vigorously. […]

B1: OVA (protein, UniProt P01012 2-386, looked up)
Ovalbumin: GSIGAASMEFCFDVFKELKVHHANENIFYCPIAIMSALAMVYLGAKDSTRTQINKVVRFDKLPGFGDSIEAQCGTSVNVHSSLRDILNQITKPNDVYSFSLASRLYAEERYPILPEYLQCVKELYRGGLEPINFQTAADQARELINSWVESQTNGIIRNVLQPSSVDSQTAMVLVNAIVFKGLWEKAFKDEDTQAMPFRVTEQESKPVQMMYQIGLFRVASMASEKMKILELPFASGTMSMLVLLPDEVSGLEQLESIINFEKLTEWTSSNVMEERKIKVYLPRMKMEEKYNLTSVLMAMGITDVFSSSANLSGISSAESLKISQAVHAAHAEINEAGREVVGSAEAGVDAASVSEEFRADHPFLFCIKHIATNAVLFFGRCVSP
For B1, the “Txnip: LN (average fold change)” value (cluster ID 5, PP, OVA vs PBS) was 0.660, the “Uba52: LN (average fold change)” value (cluster ID 5, PP, OVA vs PBS) was 0.277 and the “Ucp2: LN (average fold change)” value (cluster ID 5, PP, OVA vs PBS) was 0.325. The “Wdr89: LN (average fold change)” value (cluster ID 5, PP, OVA vs PBS) was 0.291, the “Zfp36l2: LN (average fold change)” value (cluster ID 5, PP, OVA vs PBS) was 0.865 and the “AY036118: percentage of expressing cells in OVA-treated group” value (cluster ID 6, PP) was 0.426. The “Atf3: percentage of expressing cells in OVA-treated group” value (cluster ID 6, PP) was 0.091, the “Atp5h: percentage of expressing cells in OVA-treated group” value (cluster ID 6, PP) was 0.963 and the “B3gnt8: percentage of expressing cells in OVA-treated group” value (cluster ID 6, PP) was 0.486. The “Bcl2l11: percentage of expressing cells in OVA-treated group” value (cluster ID 6, PP) was 0.257, the “Bhlhe40: percentage of expressing cells in OVA-treated group” value (cluster ID 6, PP) was 0.465 and the “Bloc1s2: percentage of expressing cells in OVA-treated group” value (cluster ID 6, PP) was 0.784. The “Btg2: percentage of expressing cells in OVA-treated group” value (cluster ID 6, PP) was 0.801, the “Ccl4: percentage of expressing cells in OVA-treated group” value (cluster ID 6, PP) was 0.848 and the “Cd68: percentage of expressing cells in OVA-treated group” value (cluster ID 6, PP) was 0.861. For the same molecule, the “Cd83: percentage of expressing cells in OVA-treated group” value (cluster ID 6, PP) was 0.092, the “Cdv3: percentage of expressing cells in OVA-treated group” value (cluster ID 6, PP) was 0.414 and the “Clcn3: percentage of expressing cells in OVA-treated group” value (cluster ID 6, PP) was 0.35. The “Clec10a: percentage of expressing cells in OVA-treated group” value (cluster ID 6, PP) was 0.532, the “Clec2d: percentage of expressing cells in OVA-treated group” value (cluster ID 6, PP) was 0.578 and the “Coq10b: percentage of expressing cells in OVA-treated group” value (cluster ID 6, PP) was 0.242. The “Crem: percentage of expressing cells in OVA-treated group” value (cluster ID 6, PP) was 0.34, the “Cxcr3: percentage of expressing cells in OVA-treated group” value (cluster ID 6, PP) was 0.516 and the “Cxcr4: percentage of expressing cells in OVA-treated group” value (cluster ID 6, PP) was 0.561. The “D13Ertd608e: percentage of expressing cells in OVA-treated group” value (cluster ID 6, PP) was 0.947, the “Ddit4: percentage of expressing cells in OVA-treated group” value (cluster ID 6, PP) was 0.221 and the “Ddx3x: percentage of expressing cells in OVA-treated group” value (cluster ID 6, PP) was 0.436. For the same molecule, the “Defa24: percentage of expressing cells in OVA-treated group” value (cluster ID 6, PP) was 0.099, the “Dnajc7: percentage of expressing cells in OVA-treated group” value (cluster ID 6, PP) was 0.987 and the “Dusp1: percentage of expressing cells in OVA-treated group” value (cluster ID 6, PP) was 0.406. The “Dusp5: percentage of expressing cells in OVA-treated group” value (cluster ID 6, PP) was 0.668, the “Dusp18: percentage of expressing cells in OVA-treated group” value (cluster ID 6, PP) was 0.091 and the “Egr1: percentage of expressing cells in OVA-treated group” value (cluster ID 6, PP) was 0.143. The “Emp3: percentage of expressing cells in OVA-treated group” value (cluster ID 6, PP) was 0.936, the “Erdr1: percentage of expressing cells in OVA-treated group” value (cluster ID 6, PP) was 0.149 and the “Fabp2: percentage of expressing cells in OVA-treated group” value (cluster ID 6, PP) was 0.048. For the same molecule, the “Fam46c: percentage of expressing cells in OVA-treated group” value (cluster ID 6, PP) was 0.221, the “Filip1l: percentage of expressing cells in OVA-treated group” value (cluster ID 6, PP) was 0.384 and the “Fkbp5: percentage of expressing cells in OVA-treated group” value (cluster ID 6, PP) was 0.161. For the same molecule, the “Fosb: percentage of expressing cells in OVA-treated group” value (cluster ID 6, PP) was 0.332, the “Fosl2: percentage of expressing cells in OVA-treated group” value (cluster ID 6, PP) was 0.141 and the “Foxp1: percentage of expressing cells in OVA-treated group” value (cluster ID 6, PP) was 0.719. The “Fyn: percentage of expressing cells in OVA-treated group” value (cluster ID 6, PP) was 0.756, the “Gapdh: percentage of expressing cells in OVA-treated group” value (cluster ID 6, PP) was 0.911 and the “Gapt: percentage of expressing cells in OVA-treated group” value (cluster ID 6, PP) was 0.657. For the same molecule, the “Gnb1: percentage of expressing cells in OVA-treated group” value (cluster ID 6, PP) was 0.515, the “Grasp: percentage of expressing cells in OVA-treated group” value (cluster ID 6, PP) was 0.193 and the “Gtf2i: percentage of expressing cells in OVA-treated group” value (cluster ID 6, PP) was 0.542. For the same molecule, the “H2-Aa: percentage of expressing cells in OVA-treated group” value (cluster ID 6, PP) was 0.947, the “H2-Ab1: percentage of expressing cells in OVA-treated group” value (cluster ID 6, PP) was 0.949 and the “H2-Eb1: percentage of expressing cells in OVA-treated group” value (cluster ID 6, PP) was 0.907. For the same molecule, the “H2afj: percentage of expressing cells in OVA-treated group” value (cluster ID 6, PP) was 0.935, the “Hes6: percentage of expressing cells in OVA-treated group” value (cluster ID 6, PP) was 0.474 and the “Hist1h1c: percentage of expressing cells in OVA-treated group” value (cluster ID 6, PP) was 0.522. For the same molecule, the “Hist2h4: percentage of expressing cells in OVA-treated group” value (cluster ID 6, PP) was 0.165, the “Ier2: percentage of expressing cells in OVA-treated group” value (cluster ID 6, PP) was 0.432 and the “Ier5: percentage of expressing cells in OVA-treated group” value (cluster ID 6, PP) was 0.937. The “Ifi30: percentage of expressing cells in OVA-treated group” value (cluster ID 6, PP) was 0.883, the “Ifrd1: percentage of expressing cells in OVA-treated group” value (cluster ID 6, PP) was 0.241 and the “Igha: percentage of expressing cells in OVA-treated group” value (cluster ID 6, PP) was 0.681. For the same molecule, the “Igkc: percentage of expressing cells in OVA-treated group” value (cluster ID 6, PP) was 0.944, the “Itpkb: percentage of expressing cells in OVA-treated group” value (cluster ID 6, PP) was 0.296 and the “Jun: percentage of expressing cells in OVA-treated group” value (cluster ID 6, PP) was 0.769. The “Junb: percentage of expressing cells in OVA-treated group” value (cluster ID 6, PP) was 0.745, the “Jund: percentage of expressing cells in OVA-treated group” value (cluster ID 6, PP) was 0.92 and the “Kdm6b: percentage of expressing cells in OVA-treated group” value (cluster ID 6, PP) was 0.307. For the same molecule, the “Klf4: percentage of expressing cells in OVA-treated group” value (cluster ID 6, PP) was 0.147, the “Klk1: percentage of expressing cells in OVA-treated group” value (cluster ID 6, PP) was 0.964 and the “Kmt2e: percentage of expressing cells in OVA-treated group” value (cluster ID 6, PP) was 0.596. The “Lag3: percentage of expressing cells in OVA-treated group” value (cluster ID 6, PP) was 0.605, the “Lgals1: percentage of expressing cells in OVA-treated group” value (cluster ID 6, PP) was 0.985 and the “Lmnb1: percentage of expressing cells in OVA-treated group” value (cluster ID 6, PP) was 0.189. For the same molecule, the “Ly6c1: percentage of expressing cells in OVA-treated group” value (cluster ID 6, PP) was 0.991, the “Lyz1: percentage of expressing cells in OVA-treated group” value (cluster ID 6, PP) was 0.035 and the “Mcl1: percentage of expressing cells in OVA-treated group” value (cluster ID 6, PP) was 0.459.
